# Molecular target: porcine pancreatic elastase (porcine) (UniProt P00772)
# Assay: cell-based or functional assay
# Chain of porcine pancreatic elastase (porcine) (P00772 27-266): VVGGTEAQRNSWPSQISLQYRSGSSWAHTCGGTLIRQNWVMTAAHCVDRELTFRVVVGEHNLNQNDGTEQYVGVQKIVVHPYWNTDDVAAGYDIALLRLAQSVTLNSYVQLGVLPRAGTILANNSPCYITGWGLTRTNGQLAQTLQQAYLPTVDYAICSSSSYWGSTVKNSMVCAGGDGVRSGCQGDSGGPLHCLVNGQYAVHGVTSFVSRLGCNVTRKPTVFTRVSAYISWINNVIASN
substance,measurement,value
human serpin B1 C344S variant (from UniProt P30740 1-379),"amount of purified protein to fully inhibit PPE (typically 160 nM, 200 uL, +40 mM 2-ME)",13 µg
